This test has as its target BD1 bromodomain construct (residues 44-168) of human Brd4 (human) (UniProt O60885). The test can be described thus: SPR.

From article doi:10.1101/2020.05.05.078782 come the findings set out here.

In turn, “YFV-C (residues 1-11) peptide acetylated at lysine 4” displayed a Kd of 362 µM. The substance “YFV-C (residues 1-11) peptide acetylated at lysine 8” came in with a Kd of 540 µM.

By Kd is commonly meant the free concentration of one partner at which half of the binding sites on the other are occupied at equilibrium, for simple one-to-one binding.
